Starred links: 1 amine or outer side, 2 acyl side, 3 side chain; linkers in the order of their positions; H or OH if unused. Positions of bridges follow the written chain, without caps; N, C: chain ends. Non-standard residues stand in square brackets, D forms with d. Groups on a side chain read outwards from the residue. *: point of attachment. PEG12 = NCCOCCOCCOCCOCCOCCOCCOCCOCCOCCOCCOCCOCCC(=O)O; PEG11 = NCCOCCOCCOCCOCCOCCOCCOCCOCCOCCOCCOCCC(=O)O; C18 diacid = O=C(O)CCCCCCCCCCCCCCCCC(=O)*; Dip = N[C@H](C(=O)O)C(c1ccccc1)c1ccccc1; γGlu = O=C(O)[C@H](CCC(=O)[*:2])N[*:1]; Palmitoyl = CCCCCCCCCCCCCCCC(=O)*; β3hF = N[C@H](CC(=O)O)Cc1ccccc1; NMeK = CN[C@@H](CCCCN)C(=O)O; Isovaleryl = CC(C)CC(=O)*; Orn = NCCC[C@H](N)C(=O)O; Dab = NCC[C@H](N)C(=O)O; Abu = CC[C@H](N)C(=O)O; Dap = NC[C@H](N)C(=O)O; AEEA = NCCOCCOCC(=O)O; Ahx = NCCCCCC(=O)O
T1: ferroportin endogenously expressed on T47D cells (HTB 133, ATCC) (human, UniProt Q9NP59 1-571)
T1 sequence (looked up): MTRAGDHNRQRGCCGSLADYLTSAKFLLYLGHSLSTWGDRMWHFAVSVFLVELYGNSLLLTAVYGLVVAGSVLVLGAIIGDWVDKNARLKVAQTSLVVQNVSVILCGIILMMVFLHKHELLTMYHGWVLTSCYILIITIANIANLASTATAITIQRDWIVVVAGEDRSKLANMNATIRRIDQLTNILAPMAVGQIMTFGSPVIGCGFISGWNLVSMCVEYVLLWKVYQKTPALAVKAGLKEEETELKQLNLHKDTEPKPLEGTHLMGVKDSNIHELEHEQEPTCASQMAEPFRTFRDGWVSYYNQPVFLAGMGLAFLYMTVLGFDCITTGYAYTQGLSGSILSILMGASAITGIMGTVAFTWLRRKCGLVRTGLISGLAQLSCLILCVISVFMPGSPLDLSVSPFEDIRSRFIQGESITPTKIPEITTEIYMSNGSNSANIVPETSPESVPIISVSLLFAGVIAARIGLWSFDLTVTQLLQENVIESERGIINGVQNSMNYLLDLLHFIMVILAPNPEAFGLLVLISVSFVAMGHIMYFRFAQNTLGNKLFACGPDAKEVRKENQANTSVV

T2: human ferroportin (SLC40A1) fused in frame with GFP, stably expressed in HEK293 cells (human, UniProt Q9NP59 1-571)
T2 sequence (looked up): T1 sequence (looked up)

B1: Isovaleric Acid-E-T-H-[Dpa]-P-A-I-[123 Triazole]-[bhPhe]-[Lys(Ahx_Palm)]-[(D)Lys]-NH2 (peptide)
peptide: XETHXPAIXXXX
modifications: N-term Isovaleric Acid; Dpa4; 123 Triazole8; bhPhe9; Lys(Ahx_Palm)10; (D)Lys11; C-term NH2; cyclized A-123Triazole (side-chain C of alanine and C5 of triazole joined by a C-C bond)
B2: Isovaleric Acid-E-T-H-[Dpa]-P-K-[bhPhe]-[Lys(Ahx_Palm)]-NH2 (peptide)
peptide: XETHXPKXX
modifications: N-term Isovaleric Acid; Dpa4; bhPhe7; Lys(Ahx_Palm)8; C-term NH2; cyclized E-K (lactam)
B3: Isovaleric Acid-Dap-T-H-[Dpa]-P-A-I-D-[bhPhe]-[Lys(Ahx_Palm)]-R-NH2 (peptide)
peptide: Isovaleryl-[Dap]TH[Dip]PAID[β3hF]K([Ahx-Palmitoyl])R-NH2
modifications: lactam 1-8
SMILES: CCCCCCCCCCCCCCCC(=O)NCCCCCC(=O)NCCCC[C@H](NC(=O)C[C@H](Cc1ccccc1)NC(=O)[C@@H]1CC(=O)NC[C@H](NC(=O)CC(C)C)C(=O)N[C@@H]([C@@H](C)O)C(=O)N[C@@H](Cc2c[nH]cn2)C(=O)N[C@@H](C(c2ccccc2)c2ccccc2)C(=O)N2CCC[C@H]2C(=O)N[C@@H](C)C(=O)N[C@@H]([C@@H](C)CC)C(=O)N1)C(=O)N[C@@H](CCCNC(=N)N)C(N)=O
B4: Isovaleric Acid-Orn-T-H-[Dpa]-P-A-I-E-[bhPhe]-[Lys(Ahx_Palm)]-R-NH2 (peptide)
peptide: XXTHXPAIEXXR
modifications: N-term Isovaleric Acid; Orn1; Dpa4; bhPhe9; Lys(Ahx_Palm)10; C-term NH2; cyclized Orn-E (lactam)
B5: Isovaleric Acid-K-T-H-[Dpa]-P-A-I-E-[bhPhe]-[Lys(Ahx_Palm)]-NH2 (peptide)
peptide: Isovaleryl-KTH[Dip]PAIE[β3hF]K([Ahx-Palmitoyl])-NH2
modifications: lactam 1-8
SMILES: CCCCCCCCCCCCCCCC(=O)NCCCCCC(=O)NCCCC[C@H](NC(=O)C[C@H](Cc1ccccc1)NC(=O)[C@@H]1CCC(=O)NCCCC[C@H](NC(=O)CC(C)C)C(=O)N[C@@H]([C@@H](C)O)C(=O)N[C@@H](Cc2c[nH]cn2)C(=O)N[C@@H](C(c2ccccc2)c2ccccc2)C(=O)N2CCC[C@H]2C(=O)N[C@@H](C)C(=O)N[C@@H]([C@@H](C)CC)C(=O)N1)C(N)=O
B6: Isovaleric Acid-K-T-H-[Dpa]-P-I-E-[bhPhe]-[Lys(Ahx_Palm)]-NH2 (peptide)
peptide: Isovaleryl-KTH[Dip]PIE[β3hF]K([Ahx-Palmitoyl])-NH2
modifications: lactam 1-7
SMILES: CCCCCCCCCCCCCCCC(=O)NCCCCCC(=O)NCCCC[C@H](NC(=O)C[C@H](Cc1ccccc1)NC(=O)[C@@H]1CCC(=O)NCCCC[C@H](NC(=O)CC(C)C)C(=O)N[C@@H]([C@@H](C)O)C(=O)N[C@@H](Cc2c[nH]cn2)C(=O)N[C@@H](C(c2ccccc2)c2ccccc2)C(=O)N2CCC[C@H]2C(=O)N[C@@H]([C@@H](C)CC)C(=O)N1)C(N)=O
B7: Isovaleric Acid-Dab-T-H-[Dpa]-P-A-I-D-[bhPhe]-[Lys(Ahx_Palm)]-R-NH2 (peptide)
peptide: Isovaleryl-[Dab]TH[Dip]PAID[β3hF]K([Ahx-Palmitoyl])R-NH2
modifications: lactam 1-8
SMILES: CCCCCCCCCCCCCCCC(=O)NCCCCCC(=O)NCCCC[C@H](NC(=O)C[C@H](Cc1ccccc1)NC(=O)[C@@H]1CC(=O)NCC[C@H](NC(=O)CC(C)C)C(=O)N[C@@H]([C@@H](C)O)C(=O)N[C@@H](Cc2c[nH]cn2)C(=O)N[C@@H](C(c2ccccc2)c2ccccc2)C(=O)N2CCC[C@H]2C(=O)N[C@@H](C)C(=O)N[C@@H]([C@@H](C)CC)C(=O)N1)C(=O)N[C@@H](CCCNC(=N)N)C(N)=O
B8: Isovaleric Acid-Dab-T-H-[Dpa]-P-A-I-E-[bhPhe]-[Lys(Ahx_Palm)]-R-NH2 (peptide)
peptide: XXTHXPAIEXXR
modifications: N-term Isovaleric Acid; Dab1; Dpa4; bhPhe9; Lys(Ahx_Palm)10; C-term NH2; cyclized Dab-E (lactam)
B9: Isovaleric Acid-E-T-H-[Dpa]-P-A-I-[Lys(IsoGlu_Palm)]-[bhPhe]-[(D)Lys]-NH2 (peptide)
peptide: Isovaleryl-ETH[Dip]PAIK([γGlu-Palmitoyl])[β3hF][dK]-NH2
SMILES: CCCCCCCCCCCCCCCC(=O)N[C@@H](CCC(=O)NCCCC[C@H](NC(=O)[C@@H](NC(=O)[C@H](C)NC(=O)[C@@H]1CCCN1C(=O)[C@@H](NC(=O)[C@H](Cc1c[nH]cn1)NC(=O)[C@@H](NC(=O)[C@H](CCC(=O)O)NC(=O)CC(C)C)[C@@H](C)O)C(c1ccccc1)c1ccccc1)[C@@H](C)CC)C(=O)N[C@H](CC(=O)N[C@H](CCCCN)C(N)=O)Cc1ccccc1)C(=O)O
B10: Isovaleric Acid-K-T-H-[Dpa]-P-A-I-D-[bhPhe]-[Lys(Ahx_Palm)]-R-NH2 (peptide)
peptide: Isovaleryl-KTH[Dip]PAID[β3hF]K([Ahx-Palmitoyl])R-NH2
modifications: lactam 1-8
SMILES: CCCCCCCCCCCCCCCC(=O)NCCCCCC(=O)NCCCC[C@H](NC(=O)C[C@H](Cc1ccccc1)NC(=O)[C@@H]1CC(=O)NCCCC[C@H](NC(=O)CC(C)C)C(=O)N[C@@H]([C@@H](C)O)C(=O)N[C@@H](Cc2c[nH]cn2)C(=O)N[C@@H](C(c2ccccc2)c2ccccc2)C(=O)N2CCC[C@H]2C(=O)N[C@@H](C)C(=O)N[C@@H]([C@@H](C)CC)C(=O)N1)C(=O)N[C@@H](CCCNC(=N)N)C(N)=O
B11: Isovaleric Acid-K-T-H-[Dpa]-P-A-I-E-[bhPhe]-NMe[Lys(Ahx_Palm)]-NH2 (peptide)
peptide: Isovaleryl-KTH[Dip]PAIE[β3hF][NMeK]([Ahx-Palmitoyl])-NH2
modifications: lactam 1-8
SMILES: CCCCCCCCCCCCCCCC(=O)NCCCCCC(=O)NCCCC[C@@H](C(N)=O)N(C)C(=O)C[C@H](Cc1ccccc1)NC(=O)[C@@H]1CCC(=O)NCCCC[C@H](NC(=O)CC(C)C)C(=O)N[C@@H]([C@@H](C)O)C(=O)N[C@@H](Cc2c[nH]cn2)C(=O)N[C@@H](C(c2ccccc2)c2ccccc2)C(=O)N2CCC[C@H]2C(=O)N[C@@H](C)C(=O)N[C@@H]([C@@H](C)CC)C(=O)N1
B12: Isovaleric Acid-K-T-H-[Dpa]-P-A-I-E-[Lys(Ahx_Palm)]-NH2 (peptide)
peptide: Isovaleryl-KTH[Dip]PAIEK([Ahx-Palmitoyl])-NH2
modifications: lactam 1-8
SMILES: CCCCCCCCCCCCCCCC(=O)NCCCCCC(=O)NCCCC[C@H](NC(=O)[C@@H]1CCC(=O)NCCCC[C@H](NC(=O)CC(C)C)C(=O)N[C@@H]([C@@H](C)O)C(=O)N[C@@H](Cc2c[nH]cn2)C(=O)N[C@@H](C(c2ccccc2)c2ccccc2)C(=O)N2CCC[C@H]2C(=O)N[C@@H](C)C(=O)N[C@@H]([C@@H](C)CC)C(=O)N1)C(N)=O

molecular target: T1, ferroportin endogenously expressed on …; assay: cell-based or functional assay

Binder	T47D MSA IC50 [nM]
Isovaleryl-ETH[Dip]PAIK([PEG11-Palmitoyl])[β3hF]-NH2 [Isovaleric Acid-E-T-H-[Dpa]-P-A-I-[Lys(2PEG11_Palm)]-[bhPhe]-NH2]	1.88
Isovaleryl-ETH[Dip]PIK[β3hF]K([Ahx-Palmitoyl])-NH2 (lactam 1-7 (inferred)) [Isovaleric Acid-E-T-H-[Dpa]-P-I-K-[bhPhe]-[Lys(Ahx_Palm)]-NH2]	25.5
B1	10.8
Isovaleryl-ETH[Dip]P[Abu]IK([PEG12-C18 diacid])[β3hF][dK]C-NH2 (thioether 6-11) [Isovaleric Acid-E-T-H-[Dpa]-P-Abu-I-[Lys(PEG12_C18_Diacid)]-[bhPhe]-[(D)Lys]-[Cys]-NH2]	388
B2	52.3
B3	733
Isovaleryl-ETH[Dip]PAIKK([Ahx-Palmitoyl])-NH2 (lactam 1-8 (inferred)) [Isovaleric Acid-E-T-H-[Dpa]-P-A-I-K-[Lys(Ahx_Palm)]-NH2]	10.6
Isovaleryl-ETH[Dip]PAIK[β3hF]K([Ahx-Palmitoyl])-NH2 (lactam 1-8) [Isovaleric Acid-E-T-H-[Dpa]-P-A-I-K-[bhPhe]-[Lys(Ahx_Palm)]-NH2]	2.14
B4	5.77
B5	3.53
B6	996
Isovaleryl-ETH[Dip]PAIK([AEEA-AEEA-γGlu-C18 diacid])[β3hF][dK]-NH2 [Isovaleric Acid-E-T-H-[Dpa]-P-A-I-[Lys(1PEG2_1PEG2_IsoGlu_C18_Diacid)]-[bhPhe]-[(D)Lys]-NH2]	65.8
B7	131
Isovaleryl-ETH[Dip]PKK([Ahx-Palmitoyl])-NH2 (lactam 1-6 (inferred)) [Isovaleric Acid-E-T-H-[Dpa]-P-K-[Lys(Ahx_Palm)]-NH2]	144
Isovaleryl-[Orn]TH[Dip]PAID[β3hF][Lys(Ahx_Palm)]R-NH2 (lactam (positions not given here); not fully specified (bridges)) [Isovaleric Acid-Orn-T-H-[Dpa]-P-A-I-D-[bhPhe]-[Lys(Ahx_Palm)]-R-NH2]	35
B8	5.53
B9	13.3
B10	3.96
B11	4.07
B12	31.2

molecular target: T2, human ferroportin (SLC40A1) fused in …; assay: cell-based or functional assay

Binder	FPN EC50 [nM]
Isovaleryl-ETH[Dip]PAIK([PEG11-Palmitoyl])[β3hF]-NH2 [Isovaleric Acid-E-T-H-[Dpa]-P-A-I-[Lys(2PEG11_Palm)]-[bhPhe]-NH2]	44.5
Isovaleryl-ETH[Dip]PAIK([AEEA-AEEA-γGlu-C18 diacid])[β3hF][dK]-NH2 [Isovaleric Acid-E-T-H-[Dpa]-P-A-I-[Lys(1PEG2_1PEG2_IsoGlu_C18_Diacid)]-[bhPhe]-[(D)Lys]-NH2]	429
B9	314

Reference: patent US20240066131A1 (Protagonist Therapeutics, Inc., priority 2020, published 2024)
